6 molecules from US20230287088A1 (BIONTECH, published 2023) can be followed below.

Test [1] deals with T1, Human-Fc-tagged SARS-CoV2 S1 recombinant protein (Sino Biologicals) (SARS-CoV-2, UniProt P0DTC2 16-685).
T1 construct: domain: S1; Bought reagent
The experiment in a line: ELISA on coated S1-hFc, 0.85 µg/ml; rabbit antibody in B-cell supernatant.

The target in test [2] is T2, Mouse-Fc-tagged SARS-CoV2 S1-RBD (Sino Biologicals) recombinant protein (SARS-CoV-2, UniProt P0DTC2 319-541).
T2 construct: domain: S1-RBD
The experiment in a line: competition ELISA: blocks S1-RBD-mFc binding to coated ACE-2 ECD.

The target of test [3] is T1, Human-Fc-tagged SARS-CoV2 S1 ….
The target in test [4] is T2, Mouse-Fc-tagged SARS-CoV2 S1-RBD (Sino …). The experiment in a line: ELISA on coated S1-RBD-mFc.
Test [5] deals with T3, His-tagged SARS-CoV S1-RBD (Sino Biologicals) (SARS-CoV, UniProt P59594 306-527).
T3 construct: domain: S1-RBD; Bought reagent
Briefly: ELISA, His-tagged SARS-CoV S1-RBD coated, anti-human Fc detection.

Test [6] addresses T2, Mouse-Fc-tagged SARS-CoV2 S1-RBD (Sino …).
Test [7] shares this target. The experiment in a line: SPR, S1-RBD-mFc captured via anti-mouse-Fc antibody, 1:1 model.
The target is the same in test [8]. Briefly: SPR (Biacore T200), RBD-mFc captured via anti-mouse-Fc on CM5, 1:1 model.
In test [9] the target is T1, Human-Fc-tagged SARS-CoV2 S1 …. The experiment in a line: ELISA on coated S1-hFc, 3 µg/ml; rabbit antibody in B-cell supernatant.
The target in test [10] is T2, Mouse-Fc-tagged SARS-CoV2 S1-RBD (Sino …). The source holds these as a separate data set.
In test [11] the target is T3, His-tagged SARS-CoV S1-RBD (Sino …). The experiment in a line: ELISA on coated His-tagged SARS-CoV S1-RBD [D00020 Figure 8A continued].
Test [12] concerns the target T2, Mouse-Fc-tagged SARS-CoV2 S1-RBD (Sino …). Briefly: ELISA on coated S1-RBD-mFc. The source holds these as a separate data set.

Like-named read-outs stand apart in the source and are kept apart here.

B1: P043.A.00109.B12 (antibody, V domains shown)
VH: QSLEESGGGLVKPEGSLTLTCKASGFDLNTYYYMCWVRQAPGKGLEWIACIATSDSGHTAYASWARGRFTISKTSSTTVTLQMTGLTAADTATYFCARGGRSVGDGVDLWGPGTLVTVSS
VL: DIVMTQTPASVEAAVGGTVTIKCQASQSISSWLAWYQQKPGQPPKLLIYDASDLASGVPSRFKGSGSGTEFTLTISDLESADAATYYCQSYLYVESGSHGFGFGGGTEVVVR
notes: also called 468; protein sample ID 468
With B1, the results for the concentration giving a half-maximal response (EC50) in test [1] and in test [4] were 0.018 µg/mL and 5.6 ng/mL, respectively. In addition, the IC50 in [2] worked out at 0.0216 µg/mL; in test [3], 0.0181 µg/mL.

B2: P043.A.00117.C08 (protein sample ID 469) (antibody, V domains shown)
VH: QSLEESGGGLVKPEGSLTLTCKASGFDLNTYYYMCWVRQAPGKGLEWIACIGTSDSGHTAYASWARGRFTISKTSSTTVTLQMTGLTAADTATYFCARGGRSVGDGVDLWGPGTLVTVSS
VL: DIVMTQTPASVEAAVGGTVTIKCQASQSISSWLAWYQQKPGQPPKLLIYDAFDLASGVPSRFKGSGSGTEFTLTISDLESADAATYYCQSYLYGESGSHGFGFGGGTEVVVR
As to B2, the EC50 was determined as 0.0885 µg/mL in [5], 0.0151 µg/mL in [1] and 6.2 ng/mL in [4]. Besides, the IC50 in test [2] is 0.0192 µg/mL; in test [3], 0.0142 µg/mL.

B3: P043.A.00095.D06 (protein sample ID 470) (antibody, V domains shown)
VH: QEQLEESGGDLVKPEGSLTLTCTASGFSFSSNYWICWVRQAPGKGLEWIGCIYIGSGDTYYASWAKGRFTISKTSSTTVTLQMTSLTAADTATYFCARSYTPGSYYNMNLWGPGTLVTVSS
VL: DVVMTQTPSSVSAAVGGTVTINCQASQQISNELSWYQQKSGQPPKLLIYDASDLASGVPSRFKGSGSGTEFTLTISDLESADAATYYCQSTGGASSDGNAFGGGTEVVVK
notes: also called S1 targeting antibody 470; anti-S1-antibody 470
On to B3, for which the values for the concentration giving a half-maximal response (EC50) in test [1] and in [4] were 0.0101 µg/mL and 8.6 ng/mL, respectively. Moreover, in [6], the Kd was determined as 0.0104 nM. Also, the IC50 in test [2] is 0.0196 µg/mL; in test [3] it was 0.0127 µg/mL.

B4: P043.A.00047.H08 (protein sample ID 447) (antibody, V domains shown)
VH: QSLEESGGDLVKPGASLTLTCTASGFSFSSDGMCWVRQAPGKGLEWIACIAAGSSGSTYYATWAQGRFTISKSSSTTVTLQMTSLTAADTATYFCAGEDYTGNNYYALWGPGTLVTVSS
VL: AIDMTQTPSPVSAVVGDTVTINCQASENIYSFLAWYQQKPGQPPKLLIYFASKLASGVPSRFKGSGSGTQFTLTISDVHSDDAAIYYCQQTGTYSDADNTFGGGTEVVVK
notes: also called antibody with the Protein sample ID 447
Regarding B4, the EC50 in test [5] was 0.0081 µg/mL; in [9], 19.5 ng/mL; in test [4], 9.6 ng/mL. Also, the Kd in test [7] stood at 0.228 nM. Also, in test [7], the kon is 296000 M⁻¹ s⁻¹. The koff in [8] came to 6.72e-05 s⁻¹. Further, the IC50 in test [2] is 0.0299 µg/mL; in [3], 0.0163 µg/mL.

B5: P043.A.00017.E07 (protein sample ID 449) (antibody, V domains shown)
VH: QSVEESGGRLVTPGTPLTLTCTVSGFSLSSYAMSWVRQAPGKGLEWIGIISSSGSTYYASWAKGRFTISKTSTTVDLKITSPTTEDTATYFCARAMYPGYSTGVYNIWGPGTLVTVSL
VL: AIQMTQSPSSLAASVGDTVTITCKASEDIGYELNWYQQKLGIAPKLLIYGANTLESGVPSRFSGSGSETDYTLTISSVQAEDAGIYYCQQGYNTPNTFGAGTKVEIK
On to B5, for which the Kd in test [7] was determined as 0.308 nM. The koff in test [7] stood at 0.000239 s⁻¹. Moreover, in test [7], the kon was determined as 780000 M⁻¹ s⁻¹. Moreover, the figures for the IC50 in test [10], in test [2] and in [3] were 0.0508 µg/mL, 0.0539 µg/mL and 0.0036 µg/mL, respectively. Further, in test [11], the binding result was “no binding (tested: 1000 ng/ml)”. Also, the EC50 in test [9] came to 5.3 ng/mL; in [12], 6.5 ng/mL; in test [4] it was 8.8 ng/mL.

B6: P043.A.00020.D06 (protein sample ID 444) (antibody, V domains shown)
VH: QSVEESGGRLVTPGTPLTLTCTVSGFSLSSYAMNWVRQAPGKGLEWIGIISSSGSTYYASWAKGRFTISKTSTTVDLKITSPTTEDTATYFCARVGAGYAGYGYDNYYGMDPWGPGTLVTVSS
VL: AIQMTQSPSSLAASVGDTVTITCKASEDIGYGLNWYQQKLGIAPKLLIYGANTLESGVPSRFSGSGSETDYTLTISSVQAEDAGIYYCQQGYSTPLTFGAGTKVEIK
Regarding B6, in test [7], the Kd was found to be 1.36 nM. For the same molecule, in test [7], the koff worked out at 0.00032 s⁻¹. The kon in [7] stood at 236000 M⁻¹ s⁻¹. The IC50 came out at 0.0651 µg/mL in test [10], 0.0603 µg/mL in test [2] and 0.0072 µg/mL in test [3]. The binding result in [11] is recorded as “no binding (tested: 1000 ng/ml)”. In addition, the EC50 amounted to 5.7 ng/mL in test [9], 8.2 ng/mL in test [12] and 7.3 ng/mL in [4].
